Measurements taken from the DeepSol protein solubility set.

Assay: soluble on expression in E. coli; label from the status in PepcDB or PDB records

Q: Which “soluble on expression in E. coli” value does the source give for “MNLDKPLLPGQVIGIIGGGHLAKMMALSAREMGFRVGVLDPQIDCPAAQVADWQLLGAYNDPEALEKLAKRAQVITYEFEHADVDALTAIQHLANIPQGTDILAITQDRLMEKSFLEDNNIVIAPYATIVSPTDIQEAIDGIGYPCILKNTRGEGRYVLHSTSDLAPSMNLLREGTCVLEAWIPYEKELSVLISGNGRGEFATFPVVETIKKERKLHETIAPARIDDEVSGELQRIAKVIAKAVGLVGTLSIEMFYTETGGIYVNKILPRPEDAGNFSIDACSFSQYDTHIRGLCNWPMPTIQLLSEAVTVNVLGNEAYETMDIINEHPDWHFHYYGHSEAKAQRAMGHITILTKEIDETLEEIKETKIWS” here?
A: The value was “not soluble”.

Q: For “MAHHHHHHMSQKNKKVYDTQNEQENTNSSSNSSSNSDKEIQKDKEEYKKGENNFSILNVEEVNIIELSREELYKVCAELQQKELEALKYIYVLDSELNIKYENDEDKLTIVEINLNDQNISNNHINFTFELPKDYPLGSISIINVTVKNFTPDTNNYINEEVYRYLQRYNEQRECILPVIYKVNEIIENIIQYKEEPGEKSLSSSTEGRSDFDQEQTFNEWDNKNKQRKADIVCFPELSYSMNFSKRPNILARRLCYSHHILSLVKRSCIIKWAKQLKIGGYSKIGYPGIIVCEGPKDEVDFYINSLNKLRWKHFDCRGMEDIELDENENLDDARVLPTTVRELDAKSMRTLSDICTQCGLRDLFLTSMKIYNNNDKKGSVKEKNKNGEENKPGNTKDILKEKGKKKKKRSSK”, which “soluble on expression in E. coli” value is on record?
A: The value was “not soluble”.

Q: For “MLRISRDLVIDEDDIEIGFVRASGPGGQNVNKVATSAQLRFDTRKLTLPEDATIRLARIAGQRMTKDGVIVIHAQRFRTQERNRQDAIDRLVEILSEALEHHHHHH”, which “soluble on expression in E. coli” value is on record?
A: The value was “not soluble”.

Q: Which “soluble on expression in E. coli” value does the source give for “MSLHMSQTTQTDIITLGAVAAKIPQLIPKVPHLLNGLKQAYLRTPSTPAGLGIAFEKAVKRNPDGMALLFEDERYSYQELNEWANQIAHFYLSLGARKGDVIAVMVENRSELLATIVALAKIGVTAALVNTSQTGKVLTHSINLVQPIALIVGEEVRKCVDEIKQDLNLAQDRFHWFANQATRQDAGSAPRDYINLAEKIDHFPKFNPPTTQTVQGKDGLFYIYTSGTTGLPKAVIFTHSRWTLAYGTYGHVLALDENDVMYVTLPMYHATGIVVCWCGVIAGSATLALRRKYSTSAFWKDVQKFNASAIGYVGELCRYLMDAPPSELDRHHRVTKMIGNGMRPNIWDKFKQRFGVKEILELYASSEGNVGFSNIFNFDNTVGFSPTPYAVIAFDKEKNEPIRDQNGYCQKVKTGEVGLLVGKITRRSPFDGYTDPEKNKSVILKNVFKKGDSYFNTGDLVRDIGFRHAQFVDRLGDTFRWKGENVSTTEVENMLCEYEKIVEAVVYGVEIPNTNGRAGMAAITLNDQAEFNDEDMSAMVNTFKKCLPAYAIPVFLRVQKTVETTGTFKYQKNKLKEQAFDPSKTEERLLVLLPGESAYCEVTSEIFDNIQAYKYREGHHHHHH” here?
A: Its value is “soluble”.

Q: For “MIHIDKNVRTSGAYVMYKNSFVFQVGPTSKGDTLGVVRLGGHKEADETAVETAKREVEEEASIDITILNSPTTYYKEYWNAQSKKLKVENKVNPILIIDSPDESLSIMYVAYSKMQPKPSSETKGLLLLSLNDIELICTGKITLNDYINQGGVSILKEKMDKELILQPFPQLMFLSELLKEDPVLLQQFLNLEHHHHHH”, which “soluble on expression in E. coli” value is on record?
A: Its value is “soluble”.

Q: Which “soluble on expression in E. coli” value does the source give for “MVEVVSVREHDRWRGVYVVELEDGSLRIATKNLVPGQRVYGERIFRYNGEEYREWNAYRSKLAAALLKGLIELPVKEGDRILYLGIASGTTASHMSDIIGPRGRIYGVEFAPRVMRDLLTVVRDRRNIFPILGDARFPEKYRHLVEGVDGLYADVAQPEQAAIVVRNARFFLRDGGYMLMAIKARSIDVTTEPSEVYKREIKTLMDGGLEIKDVVHLDPFDRDHAMIYAVMRR” here?
A: Its value is “soluble”.

Q: For “MGSDKIHHHHHHMVKMNMSDIDISEPLSDLLAPLNNEQREFLMNNYTIQTYKKNETIYCEGETPSHLMCLITGKVKIFKDGVGGRSQIIRMIKQREYFAYRAYFAKEDFVTAAAAFEPSVICLIPMTAITTLVAQNNDLAMFFIRQLSIDLGISDERTVSLTQKHIRGRLAESLIFLKESYGLEEDGSTLSIYLSREDLANLSNMTTSNAIRTLSQFATERLITIDGRKIKIIEEEKLKKISKIG”, which “soluble on expression in E. coli” value is on record?
A: Its value is “not soluble”.

Q: For “MGQTTEAQSLKYGEREIENGELITFPNPRPGRRYTINITLPEYTCKCPFSGYPDFATIYITYVPDQKVVELKAIKLYINSYRDRYISHEEAVNQILDDLVAACDPLEMTIKGDYQPRGNVHTVIEVTHTKEQA”, which “soluble on expression in E. coli” value is on record?
A: Its value is “not soluble”.

Q: With “NDAFRWKTQFNFSTNKNKIIKLHPDLKTFVYGDESFSSSYSMRLVEGGSFGDIYGKAFERDENGKVAFTTDKDGDKIPNVIGGGNTEKVGNCNPDFMLGWSNTFTYKGFSLYFLIDGRFGGDVLSQTQAELDQRGVSLNSGKARDAGYINIDGTQVKPRKFYTAVSGRDGCTEYYMYDATNIRLRELSLGYSLPQSWLAKAGGAFKDVQLSFVARNLFFISKKAPFDPDAVLSTGNDNQGIDVFGMPTTRSLGFNIKFTF” as the sequence, how does the “soluble on expression in E. coli” value read?
A: The value was “not soluble”.

Q: With “MKEKIPFYNEKEFHDMMKKTKKGTFSGWYIIDKDNKSVEFSGNFNRQFKLNKPVIPVNTEYVTRKEFNEYKDSNDQRLTKIETTLAAQGEQIRIQGEQIKELQIEQKAQGETLKLILQTLQKMSDRLNKMDVRLDKLESKLEHHHHHH” as the sequence, how does the “soluble on expression in E. coli” value read?
A: Its value is “not soluble”.

Q: Which “soluble on expression in E. coli” value does the source give for “MSLGEKHHMVLNRDQGITTRFSPQQKRLQLSSPKPYLLFFFTASCGACKEAIPYLNAIEEQWGERFEVIGVLGGSRGIKSDLEFLKRHSIRFKVLSDPSSSDYLSRAVGGVMGVPLFFFFDETGAPKEHFLGLVPQRVLEEEVRSLLEGHHHHHH” here?
A: The value was “soluble”.

Q: For “MLPETDLRRVAAAAAAMHRVAEIRRTRVSGRMDNHERRVGTEWVVTLQGADFPVTIAADHDGSTVSFDDGSSMRVTSDWTPLEHHHHHH”, which “soluble on expression in E. coli” value is on record?
A: The value was “not soluble”.

Q: For “GMTAVFRNTVLVRFKHCDAAGIVFYPRYFEMLNDFIEDWFAQALDWPFDAMHGAGQAGVPTADLHCRFVAPSRLGETLTRELRVVKLGQSSFTVQVRFMGPDSGLRLEVTQRLVCVDTDKIAPRPLPDPVRQAMATYVDETLAATGSPGL”, which “soluble on expression in E. coli” value is on record?
A: Its value is “soluble”.

Q: For “MSLKPVGLNYFSEKKGLLTDEDLMEDEHYCGMSFRGDEKKSIFGIFDGYGGIGAARETRRTLPNIIQKLIEQGLDSKEILEKGFSEVDEGMNKEEFMDIGCTCTLIYIWEEDNKVYIRSGNVGDSTCFVKKMNKGKPEIITLSQDHKVTSACEQKRMKEAGITLVEGQKRINGVGVARTLANHFVKNLNIGMIGTPYISPAIVLESGDEIILCSDGIWDVITPEKAFEMMENTQVSEAPKVIMEESMKITECRDNVTVIVVKILEGHHHHHH”, which “soluble on expression in E. coli” value is on record?
A: The value was “not soluble”.

Q: With “MGSDKIHHHHHHMRGSSNIPLDWDKLRIFHAAAEAGSFTHAADKLHLSQSAISRQVSALEQDVGVKLFHRHARGLILTEQGELLYRTAHDVLLKLETVKMQLTETTEKPSGKLRVTTTVGLGQGWLTDKVQEFLQLYPDMSIQLILDNEELDVNMRHADCAIRLRQPQQSDLIQRKLFTVHMHVYAAPSYINRYGEPQTIEDLDNHRIISFGEPAPNYLLDVNWLEVAGRSSDNRRIPHLQINSQTSIKRACLLGIGVACMPDYIVGRDPGLIQLPINAEVPSFDTYFCYPDEMKNAAKLKVFRDFIVSKARNWNF” as the sequence, how does the “soluble on expression in E. coli” value read?
A: Its value is “not soluble”.

Q: Which “soluble on expression in E. coli” value does the source give for “MNYAEICIIKRDGKREDFSISKIKNAVSKAFSATGINDEQQLIADITMNVIGQFASPTITVEEIQDLVEKELMKVRPEVAKKYIIYREWRNTERDKKTQMKHVMDGIVAIDKNDVNLSNANMSSHTPAGQMMTFASEVTKDYTYKYLLPKRFAEAHQLGDIHIHDLDYYPTKTTTCIQYDMDDLFERGFRTKNGSIRTPQSIQSYATLATIIFQTNQNEQHGGQAIPAFDFFMAKGVSKSFRKHLASFISFYVQMNKGEEIEEKAIRTVIAEHLSSIKASELERETLRMALTALQINIDKEHLNQIIEKAFVQTQKDTHQAMEGFIHNLNTMHSRGGNQVVFSSINYGTDTSAEGRMVIEELLKATVEGLGTRGEVPVFPIQIFKIKNGVSYTEADYEKAMANFDAAMEGKLKFEAPNFDLFLKACHTTAKALFPNFMFLDAPFNQNEKWDANDPQRYRYELATMGCRTRVFENVAGEKSSLGRGNLSFTTLNMPRLAIEARIKAENMTEDGHNKDAVERKAKEIFIESIHETATLIAEQLYERYQYQRTALARQFPFMMGNDVWKGGAALNPNEQVGDVLRSGTLGIGFLGGHNAMVALYGEGHGHSQKAWDTLYEAVLEINKVADEYKAKYNLNYSVLATPAEGLSGRFTRMDRRKYGKIKGVTDNDYYVNSFHVDVKEPISIVEKIKREAPFHAITRGGHITYVELDGEAQKNVRAIAKIVKVMFDEGIGYGSINHPVDTCHNCGYKGVIYDKCPVCQSENILRMRRITGYLTGDLSSWNSAKRAEEKDRVKHG” here?
A: Its value is “not soluble”.

Q: Which “soluble on expression in E. coli” value does the source give for “MSLDQFDCKVSATGGWDCSPLQNANANLPPRPAHTATSVSTAAAGSSVSGSGGETVEAEPTQRLVTESGGRALKSRSADYSHLDWIPREKLTAAQLAEIGPYCGGSYIEPVRPGMDDGAPSDESPTYVSAKASRYEQEKQIATLAGDVVLRQGSMQVEGDEANLHQLENRGELVGNVKLRDKGMLVVGDHAQVQLDNGEAQVDNAEYVIHKAHARGSALYAKRSENAIIMLKDGTYTRCEPSSNAWTLKGNNVKLNPATGFGTATNATLRVKDFPVFYTPYIYFPIDDRRQSGFLPPSFSSTSDTGFTLVTPYYFNLAPNYDATLYPRYMAKRGMMLEGEFRYLTHSSEGIVNAAYLNDKDDHREGFPDYSKDRWLYGLKNTTGLDSRWLAEVDYTRISDPYYFQDLDTDLGVGSTTYVNQRGTLTYRGDTFTGRLNAQAYQLATTTDVTPYDRLPQITFDGFLPYNPGGMQFTYGTEFVRFDRDLDENIYFNDDGSIRGKRPDASLQGLARATGDRMHLEPGMSLPMTRSWGYVTPTLKYLYTKYDLDLDSQGKTDLNKRDESFDSNQDRSLPLVKVDSGLYFDRDTTFAGTPFRQTLEPRAMYLYVPYKDQDSLPVFDTSEPSFSYDSLWRENRFTGKDRIGDANQLSLGVTSRFIEENGFERASISAGQIYYFRDRRVQLPGLTEKDLKRLNLDPSGLDNDSWRSPYAFAGQYRFNRDWRINSDFNWNPNTSRTESGSAIFHYQPEVDPGKVVNVGYRYRADARRFDSSRGTFRYGNENDIIKQHDFSVIWPLVPQWSVLARWQYDYNKNRTLEAFGGFEYDSCCWKLRLINRYWLDVDDDAFLVQSEKADRGIFLQIVLKGLGGIVGNKTEMFLDKGIQGYRQREEGHHHHHH” here?
A: Its value is “not soluble”.

Q: Which “soluble on expression in E. coli” value does the source give for “MVRVRPSCQVAQSDCGLACVHMLIQSFGISASLRKMRVTYAPGRDGLSLRALTQILSDFGLNSKVVKCSYSNLSRVPLPAIIAWEPAHYVVLEKRLGDSWRIVDPSSGRRWCSKKEIEANFRSFCVTGARGNTKVSEGQVSDDPSWKSLAVLLAGK” here?
A: Its value is “not soluble”.

Q: With “DSKKIVGVFYKANEYATKNPNFLGCVENALGIRDWLESQGHQYIVTDDKEGPDCELEKHIPDLHVLISTPFHPAYVTAERIKKAKNLKLLLTAGIGSDHIDLQAAAAAGLTVAEVTGSNVVSVAEDELMRILILMRNFVPGYNQVVKGEWNVAGIAYRAYDLEGKTIGTVGAGRIGKLLLQRLKPFGCNLLYHDRLQMAPELEKETGAKFVEDLNEMLPKCDVIVINMPLTEKTRGMFNKELIGKLKKGVLIVNNARGAIMERQAVVDAVESGHIGGYSGDVWDPQPAPKDHPWRYMPNQAMTPHTSGTTIDAQLRYAAGTKDMLERYFKGEDFPTENYIVKDGELAPQYR” as the sequence, how does the “soluble on expression in E. coli” value read?
A: The value was “soluble”.
